Test results reported in publication PMC9177983.

Molecular target: reconstituted elongation complex (EC): His-tagged E. coli RNAP core complex on template DNA, non-template DNA and RNA transcript (E. coli)

Chain of NusG (P0AFG0 whole entry): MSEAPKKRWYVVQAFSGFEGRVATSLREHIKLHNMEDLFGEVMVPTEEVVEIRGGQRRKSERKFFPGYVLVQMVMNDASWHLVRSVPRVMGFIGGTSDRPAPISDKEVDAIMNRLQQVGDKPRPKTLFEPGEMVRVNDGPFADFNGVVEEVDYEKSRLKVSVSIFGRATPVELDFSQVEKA

For “NusG (from UniProt P0AFG0 1-181) (natural protein)”, the smFRET of surface-immobilised ECs with 500 nM NusG, no nucleotide: percentage of dynamic ECs in the high-mid and high-low FRET regimes (23% for EC alone) was 33%.
